Experimental data taken from US10577618B2, “Class of glyphosate resistance genes” (Dow AgroSciences LLC, priority 2012, dated 2020).
Entries after “also recorded” stand apart in the source; their conditions may differ.

Key:
[1] = tested on: T1 Arabidopsis; experiment: Glyphosate tolerance of transformed T1 Arabidopsis, postemergence spray, visual % injury; type: in vivo, Arabidopsis thaliana
Source text: Transgenic T1 Arabidopsis plants containing the dgt-28 transgene were sprayed with differing rates of glyphosate. Elevated rates were applied in this study to determine the relative levels of resistance (105, 420, 1,680 or 3,360 g ae/ha). A typical 1× field usage rate of glyphosate is 1120 g ae/ha. The T1 Arabidopsis plants that were used in this study were variable copy number for the dgt-28 transgene. The low copy dgt-28 T1 Arabidopsis plants were self-pollinated and used to produce T2 plants.
The Arabidopsis T1 transformants were first selected from the background of untransformed seed using a glufosinate selection scheme. Three flats or 30,000 seed were analyzed for each T1 construct. The T1 plants selected above were molecularly characterized and the high copy number plants were subsequently transplanted to individual pots and sprayed with various rates of commercial glyphosate as previously described. The response of these plants is presented in terms of % visual injury 2 weeks after treatment (WAT). […] An arithmetic mean and standard deviation is presented for each construct used for Arabidopsis transformation. The range in individual response is also indicated in the last column for each rate and transformation. Wild-type, non-transformed Arabidopsis (c.v. Columbia) served as a glyphosate sensitive control.
T1 plants were sampled and copy number analysis for the dgt-31, dgt-32, and dgt-33 v1 gene were completed. T1 plants were then assigned to various rates of glyphosate so that a range of copies were among each rate. For Arabidopsis, 26.25 g ae/ha glyphosate is an effective dose to distinguish sensitive plants from ones with meaningful levels of resistance. Elevated rates were applied to determine relative levels of resistance (105, 420, 1680, or 3360 g ae/ha).
All glyphosate herbicide applications were made by track sprayer in a 187 L/ha spray volume. Glyphosate used was of the commercial Durango dimethylamine salt formulation (480 g ae/L, Dow AgroSciences, LLC). […]

[2] = tested on: EPSP synthase (DGT enzymes); experiment: In vitro kinetic characterization of plant and bacterial DGT enzymes (Pi production, malachite green); type: biochemical; conditions: for Km: read-out: KM^PEP, Km for phosphoenolpyruvate; for decrease in catalytic efficiency: relative to DGT-28 v1
Experimental: Recombinant DGT proteins were overexpressed in Rosetta2™ (DE3) cells (Novagen™, Madison, Wis.) from the constructs described above. A single colony was used to inoculate 50 mL starter cultures of LB containing chloramphenicol (25 μg/mL) and kanamycin (50 μg/mL) which were cultivated overnight at 37° C. The overnight cultures were used to inoculate 1 L of LB containing chloramphenicol (25 μg/mL) and kanamycin (50 μg/mL). The cultures were grown at 37° C. to an O.D.600=0.6 then placed in an ice water bath for 10 minutes. Expression of the target proteins was achieved by addition of IPTG to a final concentration of 500 μM.
DGT enzymes were purified to homogeneity in one step via immobilized metal affinity chromatography (IMAC) using a 5 mL HisTrap FF crude column. The column was equilibrated in Buffer A and the sample was loaded in the same buffer. The column was then washed with 10 column volumes of Buffer A followed by elution in a 0-100% Buffer B (50 mM HEPES pH 7.5, 200 mM KCl, 2 mM DTT, 1 mM EDTA, 500 mM imidazole, and 5% glycerol) linear gradient over 25 column volumes. Fractions containing target protein, as judged by SDS-PAGE analysis, were concentrated to 2.5 mL using a Millipore ultracentrifugation device equipped with a 10 kDa molecular weight cut-off (MWCO). The purified DGT enzymes were buffer exchanged using PD-10 columns (GE Healthcare) into 50 mM HEPES pH 7.5, 150 mM KCl, 2 mM DTT, and 5% glycerol and subsequently concentrated ˜1 mL. Samples were typically diluted 1:50 and the UV-visible spectrum was recorded from 240-700 nm on a Cary50™ Bio UV-visible spectrophotometer. A theoretical extinction coefficient was then used to calculate the protein concentration based on the absorbance at 280 nm (ExPASy, Geneva, Switzerland).
Frozen pellets were resuspended in 20-30 mL buffer A (50 mM HEPES pH 7.5, 100 mM KCl, 1 mM EDTA, 5% glycerol, and 1 mM DTT) and 1 tablet of protease inhibitor (Roche Complete). Once the pellet was completely resolubilized 1 mg/mL of lysozyme was added and the sample was mixed at 4° C. for 15-20 minutes. Following the incubation with the lysozyme the sample was transferred to a 50 mL centrifuge tube and placed on ice. The sample was then sonicated for 1 minute intervals followed by 4 minutes of cooling. This step was repeated two more times for a total of three sonication cycles. Cell debris was removed by centrifugation at 16,500 rpm for 45 minutes and the supernatant was loaded into a 50 mL injection loop. The crude lysate was applied to an amylose column, washed for 7 column volumes with buffer A, and eluted in 100% buffer B (Buffer A and 10 mM maltose). Target protein was pooled and concentrated to 2.5 mL using a 30 kDa MWCO centricon. The purified protein was buffer exchanged into 50 mM HEPES pH 7.5, 100 mM KCl, and 5% glycerol using a PD-10 gel filtration column. Protein concentrations were determined via Bradford assay using BSA as a standard. The pure protein was frozen in liquid nitrogen and stored at −80° C.
The enzyme activities of wild-type (WT) and mutant DGTs were measured by inorganic phosphate (Pi) production in a modified procedure described by Lanzetta et al. (1979) Anal. Bioch. 100:95-7. Assays were performed in 96-well plate format in a total of 50 μL on a Spectra-Max 190 plate reader (Molecular Devices, Sunnyvale, Calif.). Typical assays contained 50 mM HEPES pH 7.5, 150 mM KCl, 2 mM DTT, and 1 mM S3P. […] Glyphosate was obtained from Sigma as the free acid and was resuspended in ddH2O. Glyphosate was solubilized by addition of KOH until the mixture was at a neutral pH. Assays were initiated by addition of the DGT enzyme at concentrations that varied between 0.01-1 μM. Reactions were terminated by the addition of 235 μL of a 3:1 mixture of malachite green: ammonium molybdate solution. After complete color development (˜1 minute), the absorbance change at 660 nm was recorded and the amount of Pi formed was calculated from a standard curve. […]

Molecule	tolerance to glyphosate [1]	Km [2] [µM]	decrease in catalytic efficiency [2] [fold]	tolerant to glyphosate at concentrations [2] [mM]
DGT-31: Streptomyces Class IV EPSP synthase, GENBANK YP_004922608.1, SEQ ID NO:145 (protein, Streptomyces pratensis ATCC 33331) MTVIDIPGSKSVTARALFLAAAADGTTTLLRPLHSDDTEGFTEGLTRLGYAVVREPDRWHIEGRPSGPAAADAEVHCRDGATTARFLPTLAAAAASGTYRFDASAQMRRRPLAPLTEALRTLGVDLRHDGAEGHHPLTIQASGVKGGGLTLDAGESSQYLTALLMLGPLTAEGLRIEVTELVSAPYVEITLAMMRGFGVEVVREGNTFTVPPGGYRATTYAIEPDASTASYFFAAAALTGREVTVPGLGTGALQGDLRFTEVLRRMDADVRTTSDSTTVRSDGRLAGLTVNMRDISDTMPTLAAIAPYASSPVRIEDVANTRVKECDRLEACAQNLRSMGITVRTGPDWIEIHPGTPRPTEIATHGDHRIVMSFAVAGLRTPGMSYDDPGCVRKTFPRFHEEFAAFVERSSAGE	slight herbicide tolerance			
DGT-32: Streptomyces Class IV EPSP synthase, GENBANK ZP_04696613, SEQ ID NO:68 (protein, Streptomyces roseosporus NRRL 15998) DRWRVQGRPAGPAATEADVYCRDGATTARFLPTLAAAAASGTYRFDASAQMRRRPLAPLTRALTALGVDLRH	significant tolerance; also recorded: robust tolerance	140	100	
DGT-33: Streptomyces Class IV EPSP synthase, GENBANK NC_010572, SEQ ID NO:67 (protein, Streptomyces griseus subsp. griseus NBRC 13350) DRWRVEGRPDGPAAPDADVYCRDGATTARFLPTLVAAAASGTYRFDASAQMRRRPLAPLTRALTALGVDLRH	significant tolerance; also recorded: robust tolerance	114	100	
DGT-28v1: Class IV EPSP synthase from Streptomyces sviceus ATCC29083, SEQ ID NO:1, native (protein, listed as Streptomyces sviceus) MRGMPALSLPGSKSITARALFLAAAADGVTTLVRPLRSDDTEGFAEGLVRLGYRVGRTPDTWQVDGRPQGPAVAEADVYCRDGATTARFLPTLAAAGHGTYRFDASPQMRRRPLLPLSRALRDLGVDLRHEEAEGHHPLTVRAAGVEGGEVTLDAGQSSQYLTALLLLGPLTRQGLRIRVTDLVSAPYVEITLAMMRAFGVEVAREGDVFVVPPGGYRATTYAIEPDASTASYFFAAAALTPGAEVTVPGLGTGALQGDLGFVDVLRRMGAEVSVGADATTVRGTGELRGLTANMRDISDTMPTLAAIAPFASAPVRIEDVANTRVKECDRLEACAENLRRLGVRVATGPDWIEIHPGPATGAQVTSYGDHRIVMSFAVTGLRVPGISFDDPGCVRKTFPGFHEAFAELRRGIGS		91.6		> 80
